B1: Fab fragment of mAb 13G9 (Fab, V domains shown)
VH: VKLQQSGVELVRPGTSVKMSCKAVGYTFTYDWIGWVKQRPGHGLEWIGDIYLGGGYINYNEKFKGKVILTADTSSSTAYMQLSSLTSEDSAIYYCARGHYDGSYFDYWGQGTTLTVSS
VL: DVLMTQTPTIMSASIGEEITLTCSASSSVSHMHWYQHKSGTSPKLLIYITSYLASGVPSRFSGSGSGTFYSLTISSVEAEDAADYYCHQWSTFPSTFGSGTKLEIK
B2: TS-neutralizing mouse monoclonal antibody 13G9 (IgG2aκ) (antibody, V domains shown)
VH: B1 VH
VL: B1 VL
notes: they are those of the Fab heavy chain in PDB 3OPZ (chain H; also I and J); rest of the mouse IgG2a heavy chain constant region beyond the Fab (hinge, CH2, CH3); the antibody was typed as IgG2aκ; they are those of the Fab light chain in PDB 3OPZ (chain L; also M and N); also called mAb 13G9; 13G9 mAb; source: 13G9 hybridoma culture supernatant; purified (Protein A-Sepharose, MonoQ) or used as …

Assays:
[1] = molecular target: recombinant Trypanosoma cruzi trans-sialidase (construct not stated for these experiments) (Trypanosoma cruzi) (UniProt Q26966)
[2] = molecular target: T1, recombinant Trypanosoma cruzi trans-sialidase (construct not stated for these experiments) (Trypanosoma cruzi, strain  …, UniProt Q26966); assay: cell-based or functional assay
[3] = molecular target: T1, recombinant Trypanosoma cruzi …; assay: ITC; raw data not shown; done in the laboratory of Dr. Alan Cooper; conditions not stated; details: both partners purified
[4] = molecular target: T1, recombinant Trypanosoma cruzi …; assay: SPR; BIAcore 2000; purified mAb 13G9 amine-coupled to a CM5 chip; TS (1 nM to 10 µM) injected at 50 µl/min in HBS-EP (150 mM NaCl, 0.05% P20, 10 mM HEPES pH 7.4); KD calculated from the kinetic constants; apparent; details: both partners purified

Binder | IC50 of inhibition of TS activity (remnant activity of 2 ng TS with sialyllactose and [14C]-lactose, increasing amounts of purified Fab) [1] [nM] | IC50 of inhibition of TS activity (remnant activity of 2 ng TS with sialyllactose and [14C]-lactose, increasing amounts of whole 13G9 IgG) [2] [nM] | Kd [3] [nM] | Kd [4] [nM]
B1 | 1.6 |  |  | 
B2 |  | 0.056 | < 1 | ~0.72

Source: article PMC3252381, “Trypanosoma cruzi trans-Sialidase in Complex with a Neutralizing Antibody: Structure/Function Studies towards the Rational Design of Inhibitors” (PLoS Pathogens, 2012)
